In US20240132603A1 (HARBOUR BIOMED US, published 2024):
Where two headings read alike, the source gives them in different places.

How the values were obtained:
[1] = target: T1, human CCR8 (human, UniProt P51685 1-355); experiment: FACS, Baf3-hCCR8 cells
T1 construct: whole, on cells; construct used for the overexpressing cell lines is not described; also called hCCR8
Procedure, shortened: (§1)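 Anti-CCR8 antibodies, in 5-fold serial dilution from 200 nM in DPBS with 2% FBS, were bound to detached cells for 1 h at 4 °C. A 1:1000 secondary antibody followed for 40 min at 4 °C, and binding was read by flow cytometry.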

[2] = target: T1, human CCR8; experiment: cell-based or functional assay
[3] = target: T1, human CCR8; experiment: FACS, CHO-K1-hCCR8 cells
Procedure, shortened: as §1

[4] = target: T1, human CCR8; experiment: FACS, HEK293-hCCR8 cells
Procedure, shortened: as §1

[5] = target: T1, human CCR8; experiment: FACS, HEK293-hCCR8 cells; remark: listed apart in the source
Protocol: (§2) Cells overexpressing human CCR8 were digested with pancreatin, counted and resuspended to a cell density of 1E6 cells/mL. The cell suspension was added to a 96-well V-bottom plate at 100 μL/well and centrifuged at 300 g for 5 min, and the supernatant was discarded. The anti-CCR8 antibodies provided herein was used as a primary antibody and diluted in a 5-fold gradient with an FACS buffer (DPBS containing 2% FBS) from 200 nM. The diluted primary antibody was added at 100 μL/well to resuspend the cells, and the mixture was incubated at 4° C. for 1 h. The plate was washed twice with DPBS and centrifuged at 300×g for 5 min, and the supernatant was discarded. The secondary antibody diluted in a 1:1000 ratio with an FACS buffer was added at 100 μL/well to suspend the cells, and the mixture was incubated at 4° C. for 40 min. The plate was washed twice with DPBS and centrifuged at 300×g for 5 min, and the supernatant was discarded. DPBS was added at 200 μL/well to suspend the cells, and the mixture was loaded on an FACS machine for analysis.

[6] = target: T2, cynomolgus monkey CCR8 (cynomolgus monkey, UniProt G7NYJ2 1-355); experiment: FACS, CHO-K1-CynoCCR8 cells
T2 construct: whole, on cells; also called CynoCCR8
T2 sequence (G7NYJ2 entry or part of it): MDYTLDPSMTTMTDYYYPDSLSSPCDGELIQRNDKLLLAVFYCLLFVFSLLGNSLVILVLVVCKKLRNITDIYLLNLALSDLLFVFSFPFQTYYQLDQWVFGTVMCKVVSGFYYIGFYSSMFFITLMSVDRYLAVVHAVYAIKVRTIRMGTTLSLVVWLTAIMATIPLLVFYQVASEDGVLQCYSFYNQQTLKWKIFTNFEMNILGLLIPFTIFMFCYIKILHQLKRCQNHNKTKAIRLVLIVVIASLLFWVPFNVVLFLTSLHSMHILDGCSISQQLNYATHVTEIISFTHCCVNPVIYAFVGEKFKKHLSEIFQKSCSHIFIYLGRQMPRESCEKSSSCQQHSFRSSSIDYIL
Procedure, shortened: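 Anti-CCR8 antibodies titrated in 5-fold steps from 200 nM onto 1E6 cells/mL CHO-K1-CynoCCR8 in DPBS/2% FBS, 1 h at 4 °C. Bound antibody detected with 1:1000 secondary antibody, 40 min at 4 °C, then flow cytometry.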

[7] = target: T2, cynomolgus monkey CCR8; experiment: FACS, CHO-K1-CynoCCR8 cells; remark: listed apart in the source
Protocol: as §2, with “cynomolgus monkey CCR8, CHO-K1-CynoCCR8,” for “human CCR8”

[8] = target: T1, human CCR8; experiment: FACS on HEK293 cells overexpressing human CCR8
Protocol: as §2

[9] = target: T1, human CCR8; experiment: FACS competition on HEK293-hCCR8 cells against a biotin-labelled anti-CCR8 antibody at its EC80; the labelled antibody of this panel is not named on the sheet
Protocol: (§3) The antibody was conjugated with Sulfo-NHS-LC-Biotin at a molar ratio of 5:1 (1 mol antibody was added to 5 mol Sulfo-NHS-LC-Biotin) with reference to the product instructions (ThermoFisher, Cat No. A39257) and incubated on ice for 2 h. The coupled antibody was purified with a Zeba desalting column (ThermoFisher, Cat No. 89882). Cells overexpressing human CCR8, HEK293-hCCR8, were added to a V-bottom 96-well plate at a density of 1E5 cells/well and centrifuged at 300 g for 5 min, and the supernatant was discarded. The competitive antibody was serially diluted in a ratio of 1:10 from 200 nM to obtain 8 concentration points. The Biotin-antibody and the competition antibody were mixed in a 1:1 ratio on an HEK293 cell line overexpressing human CCR8 by the binding EC₈₀ concentration. The cells in the 96-well plate were resuspended and incubated at 4° C. for 1 h. The plate was washed twice with DPBS at 200 μL/well. The secondary antibody diluted in a 1:1000 ratio was added at 100 μL/well, and the mixture was incubated at 4° C. for 40 min. The plate was washed twice with DPBS at 200 μL/well. Finally, DPBS was […] at 200 μL/well to suspend the cells, and the mixture was loaded on an FACS machine for analysis.

[10] = target: T1, human CCR8; experiment: as above; remark: listed apart in the source
Protocol: as §3

[11] = target: T1, human CCR8; experiment: as above; remark: listed apart in the source
Protocol: as §3

[12] = target: T1, human CCR8; experiment: as above; remark: listed apart in the source
Protocol: as §3

[13] = target: T1, human CCR8; experiment: as above; remark: listed apart in the source
Protocol: as §3

T1 sequence (P51685 whole entry): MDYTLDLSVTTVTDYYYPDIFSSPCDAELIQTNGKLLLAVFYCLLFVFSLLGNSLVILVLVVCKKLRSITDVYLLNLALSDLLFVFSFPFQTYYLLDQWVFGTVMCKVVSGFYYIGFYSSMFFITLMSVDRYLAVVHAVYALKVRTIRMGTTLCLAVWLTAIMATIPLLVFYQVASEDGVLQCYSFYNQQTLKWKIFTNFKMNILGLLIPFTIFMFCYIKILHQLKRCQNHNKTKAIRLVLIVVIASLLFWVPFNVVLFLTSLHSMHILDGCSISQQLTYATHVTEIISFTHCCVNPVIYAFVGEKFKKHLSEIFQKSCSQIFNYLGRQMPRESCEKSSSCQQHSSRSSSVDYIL

B1: PR004122 (antibody, human IgG1, kappa)
heavy: not shown
light: DIVMTQAAPSVPVTPGESVSISCRSSKSLLHSNGNTYLYWFLQRPGQSPQLLIYRMSNLASGVPDRFSGSGSGTAFTLRISRVEAEDVGVYYCMQHLEYPLTFGAGTKLELKRTVAAPSVFIFPPSDEQLKSGTASVVCLLNNFYPREAKVQWKVDNALQSGNSQESVTEQDSKDSTYSLSSTLTLSKADYEKHKVYACEVTHQGLSSPVTKSFNRGEC
notes: chimeric, human IgG1 constant region
**Q.** What does the source list for B1?
**A.** EC50 [1]: 0.17 nM; Bottom %, blocking of CCL1-stimulated calcium flux [2]: 12%; IC50(nM), blocking of CCL1-stimulated calcium flux [2]: 1.47 nM; EC50 [3]: 0.5 nM; EC50 [4]: 0.66 nM; EC50 [5]: 0.99 nM; EC50 [6]: 1.06 nM; EC50 [7]: 2.83 nM; EC50 (read off the curve) [8]: ~1 nM; IC50 (read off the curve) [9]: ~3 nM; IC50 (read off the curve) [10]: ~2 nM; IC50 (read off the curve) [11]: ~2 nM; IC50 (read off the curve) [12]: ~2 nM; IC50 (read off the curve) [13]: 1 to 2 nM
